In patent US20200262877A1, “ION CHANNEL-BINDING PEPTIDES AND METHODS OF USE THEREOF” (priority 2017, published 2020):

Legend:
α4β2 = biological target: T1, α4β2 (Homo sapiens, UniProt P17787+P43681); assay: Ion channel panel (IonWorks Barracuda): α4β2; format: cell-based; details: 100% = no change, <100% = inhibition
T1 construct: host or cells: HEK293 or CHO
Procedure, shortened: (§1)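 Peptides were tested in duplicate at final 20 μM and 200 nM, with concentration set by amino acid analysis, in HEPES-buffered saline. They were applied for at least 5 min to HEK293 or CHO cells transfected with each channel. Currents were expressed as % inhibition, 1-(Ipeptide/Icontrol)×100, or % activation, Ipeptide/Icontrol×100, against a channel-matched reference compound.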

TRPV1 = biological target: T2, TRPV1 (Homo sapiens, UniProt Q8NER1); assay: Ion channel panel (IonWorks Barracuda): TRPV1; format: cell-based; details: 100% = no change, <100% = inhibition
T2 construct: host or cells: HEK293 or CHO
Procedure, shortened: as §1

Nav1.7 = biological target: T3, Nav1.7 (Homo sapiens, UniProt Q15858); assay: cell-based; format: cell-based; details: 100% = no change; for Activity of Nav1.7 with peptide, expressed as a percentage of the reference compound: peptide at 0.2 μM; for Activity of Nav1.7 with peptide (percentage of the reference compound): peptide at 20 μM
T3 construct: host or cells: HEK293 or CHO

Kir2.1 = biological target: T4, Kir2.1 (Homo sapiens, UniProt P63252); assay: Ion channel panel (IonWorks Barracuda): Kir2.1; format: cell-based; details: 100% = no change, <100% = inhibition
T4 construct: host or cells: HEK293 or CHO
Procedure, shortened: as §1

α3β4 = biological target: T5, α3β4 (Homo sapiens, UniProt P30926+P32297); assay: Ion channel panel (IonWorks Barracuda): α3β4; format: cell-based; details: 100% = no change, <100% = inhibition
T5 construct: host or cells: HEK293 or CHO
Procedure, shortened: as §1

Kv1.3 = biological target: T6, Kv1.3 (Homo sapiens, UniProt P22001); assay: cell-based; format: cell-based; details: 100% = no change, <100% = inhibition
T6 construct: host or cells: HEK293 or CHO
Procedure, shortened: as §1

Kv1.2 = biological target: T7, Kv1.2 (Homo sapiens, UniProt P16389); assay: cell-based; format: cell-based; details: 100% = no change, <100% = inhibition
T7 construct: host or cells: HEK293 or CHO
Procedure, shortened: as §1

Kv1.1 = biological target: T8, Kv1.1 (Homo sapiens, UniProt Q09470); assay: cell-based; format: cell-based; details: 100% = no change, <100% = inhibition
T8 construct: host or cells: HEK293 or CHO
Procedure, shortened: as §1

5HT3a = biological target: T9, 5HT3a (Homo sapiens, UniProt P46098); assay: Ion channel panel (IonWorks Barracuda): 5HT3a; format: cell-based
T9 construct: host or cells: HEK293 or CHO
T9 sequence (P46098 whole entry, looked up): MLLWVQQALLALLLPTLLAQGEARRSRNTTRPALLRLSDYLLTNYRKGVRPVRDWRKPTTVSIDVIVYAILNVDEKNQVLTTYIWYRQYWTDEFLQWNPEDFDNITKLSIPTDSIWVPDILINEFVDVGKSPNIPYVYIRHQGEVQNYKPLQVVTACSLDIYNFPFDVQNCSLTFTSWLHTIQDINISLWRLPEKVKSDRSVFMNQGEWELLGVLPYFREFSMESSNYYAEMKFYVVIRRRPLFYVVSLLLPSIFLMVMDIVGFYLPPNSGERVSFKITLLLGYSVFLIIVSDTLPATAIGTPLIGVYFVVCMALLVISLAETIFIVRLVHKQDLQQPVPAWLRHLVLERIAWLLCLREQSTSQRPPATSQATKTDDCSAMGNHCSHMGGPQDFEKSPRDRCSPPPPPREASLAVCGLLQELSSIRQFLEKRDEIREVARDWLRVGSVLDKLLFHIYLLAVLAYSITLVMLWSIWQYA
Procedure, shortened: as §1

hERG = hERG (Homo sapiens, UniProt Q12809); assay: in vitro; details: 100% = no change, <100% = inhibition
Procedure, shortened: as §1

Nav1.5 = Nav1.5 (Homo sapiens, UniProt Q14524); assay: in vitro; details: 100% = no change; for Activity of Nav1.5 with peptide, expressed as a percentage of the reference compound: peptide at 0.2 μM; for Activity of Nav1.5 with peptide (percentage of the reference compound): peptide at 20 μM
Procedure, shortened: as §1

GABA = assay: Ion channel panel (IonWorks Barracuda): GABA; format: cell-based; details: 100% = no change, <100% = inhibition
Procedure, shortened: as §1

NR2B = biological target: T10, NR2B (Homo sapiens, UniProt Q13224); assay: Ion channel panel (IonWorks Barracuda): NR2B; format: cell-based; details: 100% = no change, <100% = inhibition
T10 construct: host or cells: HEK293 or CHO
Procedure, shortened: as §1

Cav2.1 = biological target: T11, Cav2.1 (Homo sapiens, UniProt O00555); assay: cell-based; details: 100% = no change, <100% = inhibition
T11 construct: host or cells: HEK293 or CHO
Procedure, shortened: as §1

Kv2.1 = biological target: T12, Kv2.1 (Homo sapiens, UniProt Q14721); assay: cell-based; details: 100% = no change, <100% = inhibition
T12 construct: host or cells: HEK293 or CHO
Procedure, shortened: as §1

Cav2.2 = biological target: T13, Cav2.2 (Homo sapiens, UniProt Q00975); assay: cell-based; details: 100% = no change, <100% = inhibition
T13 construct: host or cells: HEK293 or CHO
Procedure, shortened: as §1

NR2A = biological target: T14, NR2A (Homo sapiens, UniProt Q12879); assay: Ion channel panel (IonWorks Barracuda): NR2A; format: cell-based; details: 100% = no change, <100% = inhibition
T14 construct: host or cells: HEK293 or CHO
Procedure, shortened: as §1

TRPA1 = biological target: T15, TRPA1 (Homo sapiens, UniProt O75762); assay: Ion channel panel (IonWorks Barracuda): TRPA1; format: cell-based; details: 100% = no change, <100% = inhibition
T15 construct: host or cells: HEK293 or CHO
Procedure, shortened: as §1

[1] = first of two Nav1.7 columns (probably TP1)
[2] = second of two Nav1.7 columns (probably TP2)
[3] = first of two Nav1.5 columns (probably TP1)
[4] = second of two Nav1.5 columns (probably TP2)

Nav1.5, sequence (Q14524 whole entry): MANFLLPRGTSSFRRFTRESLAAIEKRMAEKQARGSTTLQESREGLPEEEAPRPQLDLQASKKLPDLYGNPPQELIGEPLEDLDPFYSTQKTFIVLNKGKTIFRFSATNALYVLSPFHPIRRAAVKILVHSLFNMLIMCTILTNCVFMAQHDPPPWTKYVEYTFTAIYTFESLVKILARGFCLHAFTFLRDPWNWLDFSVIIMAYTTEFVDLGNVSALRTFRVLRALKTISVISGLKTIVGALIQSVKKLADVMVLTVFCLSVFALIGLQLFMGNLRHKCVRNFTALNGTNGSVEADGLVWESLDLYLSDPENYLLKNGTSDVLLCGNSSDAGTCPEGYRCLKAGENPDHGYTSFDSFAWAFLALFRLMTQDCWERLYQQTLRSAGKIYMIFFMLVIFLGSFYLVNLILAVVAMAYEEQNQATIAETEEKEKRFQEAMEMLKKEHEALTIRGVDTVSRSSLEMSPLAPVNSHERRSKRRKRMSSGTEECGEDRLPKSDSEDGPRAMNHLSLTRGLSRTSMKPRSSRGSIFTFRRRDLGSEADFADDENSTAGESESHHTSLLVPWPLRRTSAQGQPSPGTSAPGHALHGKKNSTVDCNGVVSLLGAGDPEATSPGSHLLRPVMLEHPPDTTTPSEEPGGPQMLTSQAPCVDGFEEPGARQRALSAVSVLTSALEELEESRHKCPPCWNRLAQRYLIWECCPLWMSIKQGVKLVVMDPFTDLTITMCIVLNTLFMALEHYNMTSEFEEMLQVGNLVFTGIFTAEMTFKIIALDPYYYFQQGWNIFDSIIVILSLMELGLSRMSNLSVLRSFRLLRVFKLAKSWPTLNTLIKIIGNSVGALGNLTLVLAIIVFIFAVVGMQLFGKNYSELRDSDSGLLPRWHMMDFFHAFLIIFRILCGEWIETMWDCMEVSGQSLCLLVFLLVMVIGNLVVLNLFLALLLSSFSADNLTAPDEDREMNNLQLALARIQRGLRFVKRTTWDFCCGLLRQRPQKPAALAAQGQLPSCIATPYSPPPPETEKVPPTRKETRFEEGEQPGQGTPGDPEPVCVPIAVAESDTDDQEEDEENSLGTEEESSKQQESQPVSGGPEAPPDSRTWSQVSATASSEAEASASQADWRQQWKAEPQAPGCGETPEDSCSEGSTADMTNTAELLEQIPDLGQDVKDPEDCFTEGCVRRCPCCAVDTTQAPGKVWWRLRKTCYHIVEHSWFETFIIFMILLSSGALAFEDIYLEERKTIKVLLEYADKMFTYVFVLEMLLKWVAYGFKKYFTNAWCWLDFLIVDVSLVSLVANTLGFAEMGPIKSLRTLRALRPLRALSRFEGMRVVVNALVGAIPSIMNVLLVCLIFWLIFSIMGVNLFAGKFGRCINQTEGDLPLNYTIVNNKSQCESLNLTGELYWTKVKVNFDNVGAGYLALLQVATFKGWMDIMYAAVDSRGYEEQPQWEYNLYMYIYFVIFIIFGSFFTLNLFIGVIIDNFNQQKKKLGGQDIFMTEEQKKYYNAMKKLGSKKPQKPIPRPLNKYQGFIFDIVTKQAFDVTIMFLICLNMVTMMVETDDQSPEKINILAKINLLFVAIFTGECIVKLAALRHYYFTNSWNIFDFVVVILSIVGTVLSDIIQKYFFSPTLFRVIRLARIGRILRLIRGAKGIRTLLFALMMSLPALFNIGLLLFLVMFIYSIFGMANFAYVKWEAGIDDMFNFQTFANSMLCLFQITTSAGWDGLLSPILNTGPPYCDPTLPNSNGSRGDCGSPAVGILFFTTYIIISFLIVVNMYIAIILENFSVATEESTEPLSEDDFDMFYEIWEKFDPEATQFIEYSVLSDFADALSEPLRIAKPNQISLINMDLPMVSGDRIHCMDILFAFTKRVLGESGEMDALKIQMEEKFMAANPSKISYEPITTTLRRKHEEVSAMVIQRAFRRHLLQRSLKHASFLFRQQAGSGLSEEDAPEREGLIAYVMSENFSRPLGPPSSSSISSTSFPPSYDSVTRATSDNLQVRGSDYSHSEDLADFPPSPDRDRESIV
T3 sequence (Q15858 whole entry): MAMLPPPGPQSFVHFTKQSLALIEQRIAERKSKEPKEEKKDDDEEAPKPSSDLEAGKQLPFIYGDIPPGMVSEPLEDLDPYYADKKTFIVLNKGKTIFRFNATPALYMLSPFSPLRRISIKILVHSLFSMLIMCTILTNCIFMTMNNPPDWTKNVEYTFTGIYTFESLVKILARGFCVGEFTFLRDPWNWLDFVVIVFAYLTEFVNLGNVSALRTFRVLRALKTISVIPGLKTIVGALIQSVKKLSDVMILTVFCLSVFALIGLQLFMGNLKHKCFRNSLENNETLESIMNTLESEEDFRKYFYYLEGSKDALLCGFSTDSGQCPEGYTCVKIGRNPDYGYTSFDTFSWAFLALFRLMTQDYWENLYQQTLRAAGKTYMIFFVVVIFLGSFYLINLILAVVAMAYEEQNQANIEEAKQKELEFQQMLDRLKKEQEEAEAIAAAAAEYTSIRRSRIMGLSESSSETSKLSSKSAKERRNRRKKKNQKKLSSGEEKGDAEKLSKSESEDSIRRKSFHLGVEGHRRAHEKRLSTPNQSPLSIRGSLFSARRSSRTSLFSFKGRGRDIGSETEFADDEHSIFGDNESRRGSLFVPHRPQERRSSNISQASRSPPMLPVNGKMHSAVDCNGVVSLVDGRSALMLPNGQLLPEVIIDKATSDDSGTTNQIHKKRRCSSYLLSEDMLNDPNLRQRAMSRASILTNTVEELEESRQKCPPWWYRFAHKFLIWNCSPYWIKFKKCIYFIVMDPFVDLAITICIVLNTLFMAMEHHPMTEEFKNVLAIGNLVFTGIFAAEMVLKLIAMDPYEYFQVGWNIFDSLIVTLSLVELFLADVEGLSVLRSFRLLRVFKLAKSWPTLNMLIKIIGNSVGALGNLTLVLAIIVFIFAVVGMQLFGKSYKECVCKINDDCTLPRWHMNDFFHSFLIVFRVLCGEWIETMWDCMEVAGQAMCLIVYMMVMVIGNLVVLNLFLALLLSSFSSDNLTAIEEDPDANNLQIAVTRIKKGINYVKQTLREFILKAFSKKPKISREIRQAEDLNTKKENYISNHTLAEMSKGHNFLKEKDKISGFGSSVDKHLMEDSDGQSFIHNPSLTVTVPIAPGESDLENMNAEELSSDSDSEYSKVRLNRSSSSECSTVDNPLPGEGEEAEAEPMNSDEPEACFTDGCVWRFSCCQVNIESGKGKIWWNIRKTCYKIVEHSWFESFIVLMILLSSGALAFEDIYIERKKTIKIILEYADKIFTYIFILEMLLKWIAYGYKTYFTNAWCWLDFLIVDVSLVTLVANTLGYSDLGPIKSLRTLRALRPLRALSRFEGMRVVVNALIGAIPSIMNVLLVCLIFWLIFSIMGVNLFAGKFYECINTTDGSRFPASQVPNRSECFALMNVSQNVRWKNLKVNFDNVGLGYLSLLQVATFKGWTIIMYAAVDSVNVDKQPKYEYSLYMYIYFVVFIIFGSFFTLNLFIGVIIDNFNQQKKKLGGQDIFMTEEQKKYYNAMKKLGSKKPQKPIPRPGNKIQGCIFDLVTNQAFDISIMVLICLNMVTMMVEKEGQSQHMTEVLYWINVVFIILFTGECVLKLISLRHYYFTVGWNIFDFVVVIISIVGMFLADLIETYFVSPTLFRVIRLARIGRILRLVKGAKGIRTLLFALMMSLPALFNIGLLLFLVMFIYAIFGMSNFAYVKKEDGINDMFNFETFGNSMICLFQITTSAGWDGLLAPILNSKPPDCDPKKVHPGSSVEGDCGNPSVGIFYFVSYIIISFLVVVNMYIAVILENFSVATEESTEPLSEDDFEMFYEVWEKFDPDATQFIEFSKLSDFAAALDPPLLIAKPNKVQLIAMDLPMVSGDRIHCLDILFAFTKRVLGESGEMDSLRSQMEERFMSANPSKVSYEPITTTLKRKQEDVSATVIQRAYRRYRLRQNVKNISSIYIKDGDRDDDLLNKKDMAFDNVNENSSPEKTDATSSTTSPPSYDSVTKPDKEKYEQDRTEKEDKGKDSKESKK
T4 sequence (P63252 whole entry): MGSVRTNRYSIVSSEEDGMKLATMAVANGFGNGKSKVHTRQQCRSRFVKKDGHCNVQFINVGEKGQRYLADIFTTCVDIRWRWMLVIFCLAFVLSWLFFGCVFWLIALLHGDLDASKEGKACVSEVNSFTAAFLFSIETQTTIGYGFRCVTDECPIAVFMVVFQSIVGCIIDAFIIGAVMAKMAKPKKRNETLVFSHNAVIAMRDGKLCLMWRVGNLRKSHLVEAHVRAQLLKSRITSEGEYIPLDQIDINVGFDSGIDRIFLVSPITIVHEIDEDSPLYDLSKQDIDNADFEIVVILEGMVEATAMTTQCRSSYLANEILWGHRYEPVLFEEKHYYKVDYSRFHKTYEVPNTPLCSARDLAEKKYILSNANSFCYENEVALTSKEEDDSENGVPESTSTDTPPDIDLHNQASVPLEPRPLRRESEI
T7 sequence (P16389 whole entry): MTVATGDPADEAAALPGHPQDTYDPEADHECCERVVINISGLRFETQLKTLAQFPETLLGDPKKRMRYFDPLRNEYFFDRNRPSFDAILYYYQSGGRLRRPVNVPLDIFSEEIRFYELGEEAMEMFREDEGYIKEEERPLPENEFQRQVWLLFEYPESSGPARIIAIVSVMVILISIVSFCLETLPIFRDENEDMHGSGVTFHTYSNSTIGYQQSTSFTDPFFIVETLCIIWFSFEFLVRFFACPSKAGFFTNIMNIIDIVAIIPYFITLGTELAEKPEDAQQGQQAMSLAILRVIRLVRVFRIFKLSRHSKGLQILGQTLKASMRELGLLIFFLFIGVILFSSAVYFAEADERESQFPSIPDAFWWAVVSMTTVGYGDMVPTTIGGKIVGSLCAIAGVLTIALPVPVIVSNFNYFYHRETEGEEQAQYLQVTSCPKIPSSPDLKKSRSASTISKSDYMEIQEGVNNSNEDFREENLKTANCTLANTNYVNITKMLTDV

14 (GSDRDSCIDKSRCSKYGYYQECQDCCKKAGHNGGTCMFFKCKCA) [compound 14]
Activity of a4b2 with peptide, expressed as a percentage of the reference compound (α4β2; peptide at 0.2 μM): 106%
Activity of a4b2 with peptide (percentage of the reference compound) (α4β2; peptide at 20 μM): 81%
Activity of TRPV1 with peptide, expressed as a percentage of the reference compound (TRPV1; peptide at 0.2 μM): 133%
Activity of TRPV1 with peptide (percentage of the reference compound) (TRPV1; peptide at 20 μM): 92%
Activity of Nav1.7 with peptide, expressed as a percentage of the reference compound (Nav1.7; [1]): 83%
Activity of Nav1.7 with peptide, expressed as a percentage of the reference compound (Nav1.7; [2]): 89%
Activity of Nav1.7 with peptide (percentage of the reference compound) (Nav1.7; [1]): 72%
Activity of Nav1.7 with peptide (percentage of the reference compound) (Nav1.7; [2]): 65%
Activity of Kir2.1 with peptide, expressed as a percentage of the reference compound (Kir2.1; peptide at 0.2 μM): 95%
Activity of Kir2.1 with peptide (percentage of the reference compound) (Kir2.1; peptide at 20 μM): 79%
Activity of a3b4 with peptide, expressed as a percentage of the reference compound (α3β4; peptide at 0.2 μM): 99%
Activity of a3b4 with peptide (percentage of the reference compound) (α3β4; peptide at 20 μM): 93%
Activity of Kv1.3 with peptide, expressed as a percentage of the reference compound (Kv1.3; peptide at 0.2 μM): 87%
Activity of Kv1.3 with peptide (percentage of the reference compound) (Kv1.3; peptide at 20 μM): 82%
Activity of Kv1.2 with peptide, expressed as a percentage of the reference compound (Kv1.2; peptide at 0.2 μM): 73%
Activity of Kv1.2 with peptide (percentage of the reference compound) (Kv1.2; peptide at 20 μM): 34%
Activity of Kv1.1 with peptide, expressed as a percentage of the reference compound (Kv1.1; peptide at 0.2 μM): 79%
Activity of Kv1.1 with peptide (percentage of the reference compound) (Kv1.1; peptide at 20 μM): 99%
Activity of 5HT3a with peptide (percentage of the reference compound) (5HT3a): 78%
Activity of 5HT3a with peptide, expressed as a percentage of the reference compound (5HT3a): 96%
Activity of hERG with peptide, expressed as a percentage of the reference compound (hERG; peptide at 0.2 μM): 82%
Activity of hERG with peptide (percentage of the reference compound) (hERG; peptide at 20 μM): 1%
Activity of Nav1.5 with peptide, expressed as a percentage of the reference compound (Nav1.5; [3]): 85%
Activity of Nav1.5 with peptide, expressed as a percentage of the reference compound (Nav1.5; [4]): 82%
Activity of Nav1.5 with peptide (percentage of the reference compound) (Nav1.5; [3]): 94%
Activity of Nav1.5 with peptide (percentage of the reference compound) (Nav1.5; [4]): 97%
Activity of GABA with peptide, expressed as a percentage of the reference compound (GABA; peptide at 0.2 μM): 107%
Activity of GABA with peptide (percentage of the reference compound) (GABA; peptide at 20 μM): 120%
Activity of NR2B with peptide, expressed as a percentage of the reference compound (NR2B; peptide at 0.2 μM): 123%
Activity of NR2B with peptide (percentage of the reference compound) (NR2B; peptide at 20 μM): 72%
Activity of Cav2.1 with peptide, expressed as a percentage of the reference compound (Cav2.1; peptide at 0.2 μM): 118%
Activity of Cav2.1 with peptide (percentage of the reference compound) (Cav2.1; peptide at 20 μM): 111%
Activity of Kv2.1 with peptide, expressed as a percentage of the reference compound (Kv2.1; peptide at 0.2 μM): 109%
Activity of Kv2.1 with peptide (percentage of the reference compound) (Kv2.1; peptide at 20 μM): 93%
Activity of Cav2.2 with peptide, expressed as a percentage of the reference compound (Cav2.2; peptide at 0.2 μM): 129%
Activity of Cav2.2 with peptide (percentage of the reference compound) (Cav2.2; peptide at 20 μM): 95%
Activity of NR2A with peptide, expressed as a percentage of the reference compound (NR2A; peptide at 0.2 μM): 107%
Activity of NR2A with peptide (percentage of the reference compound) (NR2A; peptide at 20 μM): 95%
Activity of TRPA1 with peptide, expressed as a percentage of the reference compound (TRPA1; peptide at 0.2 μM): 106%
Activity of TRPA1 with peptide (percentage of the reference compound) (TRPA1; peptide at 20 μM): 66%
